The target of this test is Rluc-tagged smAKAP, a peptide derived from an RI-specific AKAP. Put plainly: Renilla luciferase (Rluc) protein-fragment complementation assay (PCA). The note with it: bar labelled L50R:smAKAP; parent: est. 13; read off a plot.

Consider “Rluc-tagged RIβ WT (Renilla luciferase protein-fragment complementation hybrid protein) (from UniProt P31321) L50R”, for which the response is 1.5 RLU 10^4.
